The target of this test is CD30 on CD30+ lymphoma cell lines (UniProt P28908). Put plainly: cell-based or functional assay.
Sequence of UniProt P28908 (P28908 19-595 limits assumed): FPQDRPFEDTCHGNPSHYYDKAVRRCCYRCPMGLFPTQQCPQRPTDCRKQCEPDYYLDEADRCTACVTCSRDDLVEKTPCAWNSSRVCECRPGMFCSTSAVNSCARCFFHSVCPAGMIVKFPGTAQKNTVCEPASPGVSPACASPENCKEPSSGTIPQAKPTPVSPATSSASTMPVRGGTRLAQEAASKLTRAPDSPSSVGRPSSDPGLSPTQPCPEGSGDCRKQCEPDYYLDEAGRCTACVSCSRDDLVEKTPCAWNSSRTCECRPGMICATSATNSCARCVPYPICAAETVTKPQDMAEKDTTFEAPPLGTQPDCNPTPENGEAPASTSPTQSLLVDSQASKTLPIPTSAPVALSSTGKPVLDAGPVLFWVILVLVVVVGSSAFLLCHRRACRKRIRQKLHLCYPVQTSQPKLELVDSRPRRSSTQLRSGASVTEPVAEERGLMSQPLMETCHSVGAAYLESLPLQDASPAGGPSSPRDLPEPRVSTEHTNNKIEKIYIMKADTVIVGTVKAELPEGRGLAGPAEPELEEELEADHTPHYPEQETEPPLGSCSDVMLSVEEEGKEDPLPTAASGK

Substance “bispecific tetravalent CD30/CD16A tandem diabody AFM13 (bispecific antibody)” yielded a specific lysis of CD30+ tumor cells by NK cells, 4-hour 51Cr release assay of 0.001 µg/mL.

(Values after patent US20200010547A1.)
